{
  "source": "patent US8765126B2",
  "about": "“Methods of treating complications and disorders associated with G-CSF administration” (priority 2011, dated 2014)",
  "molecules": {"B1": {"name": "Granulocyte colony-stimulating factor (protein, chains of the INN, looked up)", "chain": "MTPLGPASSLPQSFLLKCLEQVRKIQGDGAALQEKLCATYKLCHPEELVLLGHSLGIPWAPLSSCPSQALQLAGCLSQLHSGLFLYQGLLQALEGISPELGPTLDTLQLDVADFATTIWQQMEELGMAPALQPTQGAMPAFASAFQRRAGGVLVASHLQSFLEVSYRVLRHLAQP"}},
  "key": {"surface MPO": {"tested_on": "surface MPO", "test": "Detection of membrane MPO activity (surface biotinylation, streptavidin beads, OPD substrate)", "format": "cell-based, human", "protocol": "Detection of membrane MPO activity. Aliquots of NL and ML were surface biotinylated, lyesed and membrane proteins were precipitated with streptavidin-conjugated agarose beads. The beads were incubated with a chromogenic peroxidase substrate, o-Phenylenediamine dihydrochloride (OPD) (Sigma) and the activity of surface MPO was monitored spectrophotometrically."}, "membrane MPO": {"tested_on": "membrane MPO", "test": "Flow cytometry of cell surface (membrane) MPO expression on myeloid cells", "format": "cell-based, human", "protocol": "(§1) Flow cytometry. Cell surface expression of E-selectin ligands and MPO was determined by indirect single-color immunostaining with HECA-452 and anti-MPO (2C7) mAbs, respectively. Cells were incubated with primary antibodies and their matched isotype controls in PBS with 2% FBS for 20 min, on ice. After successive washes with PBS and 2% FBS cells were stained with FITC-conjugated secondary antibody for HECA-452 and PE-conjugated secondary antibody for MPO. Stained cells were then washed, resuspended in PBS, and analyzed using the Cytomics FC 500 MPL flow cytometer (Beckman Coulter, Miami, Fla.).\n(§2) In vitro G-CSF treatment. Myeloid cells (10^6 cells/ml), isolated from different sources were cultured with RPMI 1640 medium (Mediatech, Inc, Manassas, Va.) with 10% FBS, 1% pen/strep and 10 ng/ml recombinant human G-CSF (Neupogen) from Amgen Mfg. Ltd., CA. Cells were maintained in culture for 72 h, at 37° C. and G-CSF aliquots were added after each 24 h period.\n(§3) Neuraminidase and DMJ treatment. Cells were isolated from the buffy coat of bone marrow aspirates after centrifugal sedimentation and red blood cell lysis. […] After extensive washes, cells were divided in equal numbers and cultured in RPMI 1640 medium, for 48 h, with or without G-CSF treatment. In parallel, a subset of cells cultured with G-CSF was treated with 1 mM deoxymannojirimycin (DMJ). The effect(s) of G-CSF and DMJ were assessed by flow cytometry analysis of surface expression of HECA-452 determinants and of MPO."}, "[1]": {"tested_on": "HECA-452-reactive glycans", "test": "Flow cytometry of cell surface HECA-452-reactive sialofucosylated glycans on myeloid cells", "format": "cell-based, human", "protocol": "as §1, §2, §3"}, "[2]": {"tested_on": "mice with surgically-induced myocardial infarct", "test": "Surgically induced myocardial infarct, echocardiographic ejection fraction", "format": "in vivo", "conditions": "7 days post-MI, mice injected with neuraminidase-treated ML vs untreated ML", "description": "Adult RAG-2/JAK-3 SCID mice were maintained on a standard mouse chow diet and water ad libitum, and housed in a temperature-controlled environment under an alternating 12-hour light/dark cycle. All animal handling procedures adhered strictly to the approved guidelines of the Institutional Animal Care and Use Committee. Mice paired by weight and sex were distributed in two groups: in one group experimental MI was induced by permanent left anterior descending artery (LAD) ligation, as previously described^67 and another group that underwent open thoracotomy without coronary ligation (sham operated). Within five hours following the surgery, mice from each group were injected via jugular vein either with PBS or different cell types: NL, ML or sialidase-treated ML (4×10^6 cells/mouse). The surgeon who performed the MI procedure and the jugular vein perfusions was blinded to the type of cells/[…] injected in each animal. Echocardiography was performed on all mice before surgery (baseline), at 3 days and 7 days following surgery using an 18 to 38 MHz linear-array transducer with a digital ultrasound system (Vevo 2100 Imaging System, VisualSonics, Toronto, Canada). Standard parasternal long- and short-axis views were obtained during each echocardiographic examination and image measurements were performed offline by an investigator blinded to animal groups and the cell types/PBS injections."}, "[3]": {"conditions": "patients receiving G-CSF; cited from earlier work"}, "MPO-EL": {"tested_on": "MPO-EL", "test": "MPO immunoprecipitation and western blot with E-selectin-Ig chimera / anti-MPO 3D3", "format": "cell-based, human", "protocol": "G-CSF induces MPO-EL expression in myeloid cells in vitro. To directly assess whether G-CSF stimulates expression of MPO-EL, freshly obtained BM, NL and ML were placed in culture and treated for 48 hours with human G-CSF at 10 ng/ml, a dose reflecting physiologic concentrations of G-CSF following in vivo administration^21,37. MPO was immunoprecipitated from equivalent cell numbers of BM, NL and ML, then resolved on SDS-PAGE and blotted with an anti-MPO Ab which predominantly recognizes the heavy chain (clone 3D3) (FIG. 4d); blots were then stripped and stained with E-Ig (FIG. 4e).\nImmunoprecipitations, SDS-PAGE and Western Blotting. Leukocytes were lysed in Buffer A (0.5 mM Tris, pH=8, 150 mM NaCl, 20 μg/ml PMSF, 0.02% sodium azide) supplemented with 1% Triton (Sigma-Aldrich, St. Louis, Mo.) and protease inhibitor cocktail (Roche Diagnostics GmbH, Mannheim, Germany). Cell lysates were precleared with rProtein G Agarose beads (Invitrogen, Carlsbad, Calif.). Immunoprecipitations were performed at 4° C. for 16 h, by incubating the precleared lysates with 2 μg antibody and a fresh batch of agarose beads blocked in advance with 1 mg/ml bovine serum albumin (Sigma-Aldrich, St. Louis, Mo.). After extensive washes, the beads were boiled with sample buffer and the released antigens or cell lysates were resolved on 7.5% Tris-HCl SDS-PAGE (Criterion™ Precast Gel, Bio-Rad Laboratories, Hercules, Calif.). In western blot experiments separated proteins were transferred to Sequi-Blot™PVDF Membrane (Bio-Rad Laboratories, Hercules, Calif.) which was blocked for 2 h with a solution of 5% Non-Fat Milk (LabScientific, Livingston, N.J.). Proteins were detected with E-selectin-Ig chimera or with anti-MPO mAb: clone 2C7 (Abcam) and clone 3D3 (a generous gift from Carrie Rice at Maine Biotechnology Services, ME). Secondary antibodies goat anti-human IgG and goat anti-mouse IgG, HRP-conjugated were detected with Lumi-Light Western Blotting Substrate, (Roche Diagnostics GmbH, Mannheim, Germany).\nIn vitro G-CSF treatment. […]"}},
  "note": "“Also recorded” adds a separate entry of the source. Like-named read-outs stand apart in the source and are kept apart here.",
  "data": [
    {"molecule": "OC[C@H]1NC[C@@H](O)[C@@H](O)[C@@H]1O", "note": "[DMJ, deoxymannojirimycin, reference compound]", "values": [
      {"measurement": "G-CSF-induced angiotoxicity", "setting": "TNF-α-stimulated HUVEC; NL treated with G-CSF and DMJ together", "value": "prevented G-CSF-induced angiotoxicity"},
      {"measurement": "induction of surface enzymatic activity", "setting": "surface MPO; DMJ added to G-CSF-treated NL", "value": "prevented induction of surface enzymatic activity"},
      {"measurement": "G-CSF-induced MPO expression", "setting": "membrane MPO; NA-treated BM cells, G-CSF in presence of 1 mM DMJ, 48 h", "value": "significantly attenuated"},
      {"measurement": "G-CSF-induced expression of HECA-452-reactive glycans", "setting": "[1]; NA-treated BM cells cultured 48 h with G-CSF in presence of 1 mM DMJ", "value": "markedly diminished"}
    ]},
    {"molecule": "sialidase: Vibrio Cholerae neuraminidase used to cleave terminal sialic acid from sLex [reference compound]", "values": [
      {"measurement": "endothelial cell death", "setting": "TNF-α-stimulated HUVEC; TNF-α-stimulated HUVEC in absence of leukocytes (baseline)", "value": "no effect"},
      {"measurement": "endothelial cell death", "setting": "TNF-α-stimulated HUVEC; co-culture with sialidase-treated ML compared to untreated ML", "value": "significantly decreased"},
      {"measurement": "MPO expression", "setting": "membrane MPO; BM cells treated with NA, cultured 48 h", "value": "did not induce MPO expression"},
      {"measurement": "ejection fraction", "setting": "[2]", "value": "improved ejection fraction"}
    ]},
    {"molecule": "B1", "values": [
      {"measurement": "angiotoxicity", "setting": "TNF-α-stimulated HUVEC; G-CSF-treated ML compared to untreated ML", "value": "no significant increase in angiotoxicity"},
      {"measurement": "endothelial cell death (cytotoxic effect)", "setting": "TNF-α-stimulated HUVEC; G-CSF-treated NL or BM compared to untreated NL or BM cells", "value": "enhanced cytotoxic effect; also recorded: markedly increased"},
      {"measurement": "cutaneous leukocytoclastic vasculitis, patients affected", "setting": "[3]", "value": "≤ 6", "unit": "%"},
      {"measurement": "cell surface MPO enzymatic (peroxidase) activity", "setting": "surface MPO; NL cultured with 10 ng/ml G-CSF for 48 hours", "value": "induced surface peroxidase activity"},
      {"measurement": "MPO membrane expression", "setting": "membrane MPO; ML treated ex vivo with G-CSF", "value": "only modestly increased"},
      {"measurement": "expression of surface MPO", "setting": "membrane MPO; NL and BM cells treated ex vivo with G-CSF", "value": "dramatically increased"},
      {"measurement": "HECA452-reactive glycans", "setting": "[1]; ML treated ex vivo with G-CSF", "value": "only modest increases"},
      {"measurement": "expression of HECA-452 determinants", "setting": "[1]; NA-treated BM cells incubated with G-CSF vs without G-CSF, 48 h", "value": "marked increased expression"},
      {"measurement": "HECA452-reactive glycans", "setting": "[1]; NL and BM treated ex vivo with G-CSF", "value": "significant increase"},
      {"measurement": "MPO-EL expression", "setting": "MPO-EL; BM and NL, 10 ng/ml G-CSF, 48 hours", "value": "markedly induces"},
      {"measurement": "MPO quantity", "setting": "MPO-EL; BM and NL, 10 ng/ml G-CSF, 48 hours, anti-MPO 3D3 blot", "value": "without significant increase"},
      {"measurement": "MPO-EL expression", "setting": "MPO-EL; ML, ex vivo exposure to G-CSF", "value": "did not further increase"}
    ]}
  ]
}
